We go through three molecules from US20020199213A1 (Kyowa Kirin, published 2002).

The target of assay [1] is CD4:Fc (human) (UniProt P01730). The assay can be described thus: SPR, BIAcore2000, CD4:Fc immobilized by amine coupling, MAb flowed.
Assay [2] has as its target T1, Human CD152 Mu-Ig fusion (Ancel # 501-820) (human, UniProt P16410 36-161).
T1 construct: Bought reagent; coated on ELISA plates at 0.2 ug/ml for hybridoma screening; also called CTLA-4; not shown: murine Ig part of the bought fusion, not described
T1 sequence (looked up): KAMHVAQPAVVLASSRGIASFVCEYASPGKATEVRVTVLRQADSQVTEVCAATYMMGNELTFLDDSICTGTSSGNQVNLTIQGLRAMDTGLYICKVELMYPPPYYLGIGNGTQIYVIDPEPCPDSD
Description: ELISA of hybridoma supernatant on coated human CD152 mu-Ig fusion (assay taken from paragraph 247; the table does not explain OD).

In assay [1], “murine anti-CD4 MAb, Leu3a (Pharmingen) (antibody)” returned a Ka of 3.1e+10 M⁻¹, a koff of 7.1e-06 s⁻¹ and an on-rate constant (kon) of 220000 M⁻¹ s⁻¹.

B1: 9C4 (antibody, V domains shown)
VH: QVQLVESGGGVVEPGRSLRLSCAASGFTFSSYGMHWVRQAPGKGLEWVAVIWYKSSEKDYADSAKGRFTISRDNSKNTLYLQMNSLRAEDTAVYYCARAGLLGYFDYWGQGTLVTVSS
VL: EIVLTQSPGTLSLSPGERATLSCRASQSLNSYLAWYQQKPGQAPRPLIYGVSSRATGIPDRFSGSGSGTDFTLTISRLEPEDFAVYYCQQYGIYPFTFGPGTKVDIK
As to B1, in assay [2], the OD was found to be 1.3 OD.

B2: 1H5 (antibody, V domains shown)
VH: QLQLQESGPGLVKPSETLSLTCTVSGGSISNSNYYWGWIRQPPGKELEWIGSIYYTGNTYYNPSLKSRVTVSVDTSRNQFSLNLNSVIAADTAVYSCARHGFTISWSLDVWGQGTTVTVSS
VL: AIQLTQSPSSLSASVGDRVTITCRASQGISSALAWYQQKPGKAPKLLIYDASSLESGVPSRFSGSGSGTDFTLTISSLQPEDFATYYCQQFNSYLLTFGGGTKVEIK
In turn, B2 registered an OD in assay [2] of 1.39 OD.
